Measurements from patent US20220184172.

What was measured:
[1] = system: recombinant Caspase-6 (Origene, Cat. TP760261)
[2] = system: purified caspase-6-myc expressed in HEK293T cells
[3] = system: T1, recombinant Bid (R&D Systems, Cat. 846-BD-50)
T1 sequence: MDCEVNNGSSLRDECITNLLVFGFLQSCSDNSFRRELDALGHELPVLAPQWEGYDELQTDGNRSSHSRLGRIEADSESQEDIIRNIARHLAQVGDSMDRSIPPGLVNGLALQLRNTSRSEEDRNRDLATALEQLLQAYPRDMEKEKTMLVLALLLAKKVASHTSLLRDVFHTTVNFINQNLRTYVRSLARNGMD

[4] = system: purified Bid-HA expressed in HEK293T cells
[5] = system: purified Bax-HA expressed in HEK293T cells

Sequence of recombinant AMPKα1β1γ1 active kinase (Q13131 whole entry): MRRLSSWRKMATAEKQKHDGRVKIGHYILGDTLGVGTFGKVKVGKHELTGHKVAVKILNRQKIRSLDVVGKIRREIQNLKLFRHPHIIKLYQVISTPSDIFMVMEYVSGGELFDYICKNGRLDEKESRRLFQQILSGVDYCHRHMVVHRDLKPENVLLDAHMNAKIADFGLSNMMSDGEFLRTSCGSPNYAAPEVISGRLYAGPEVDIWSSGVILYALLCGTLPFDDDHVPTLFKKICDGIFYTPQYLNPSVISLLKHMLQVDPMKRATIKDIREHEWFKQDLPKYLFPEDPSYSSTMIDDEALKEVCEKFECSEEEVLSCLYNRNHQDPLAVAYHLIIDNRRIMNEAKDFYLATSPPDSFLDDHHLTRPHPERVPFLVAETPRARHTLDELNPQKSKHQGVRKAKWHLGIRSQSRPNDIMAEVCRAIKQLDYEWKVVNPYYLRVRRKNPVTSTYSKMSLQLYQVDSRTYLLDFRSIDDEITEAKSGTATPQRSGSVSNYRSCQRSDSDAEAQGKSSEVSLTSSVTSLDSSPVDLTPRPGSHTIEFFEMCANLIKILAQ
Sequence of recombinant AMPKα1β1γ1 active kinase (Q9Y478 2-270, further chain): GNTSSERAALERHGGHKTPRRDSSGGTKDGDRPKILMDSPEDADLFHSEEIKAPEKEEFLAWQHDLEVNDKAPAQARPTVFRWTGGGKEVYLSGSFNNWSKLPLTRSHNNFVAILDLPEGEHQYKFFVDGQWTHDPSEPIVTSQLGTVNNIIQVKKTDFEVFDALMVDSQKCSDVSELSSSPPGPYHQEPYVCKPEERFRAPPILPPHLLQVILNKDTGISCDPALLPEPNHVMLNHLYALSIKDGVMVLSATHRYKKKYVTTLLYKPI
Sequence of recombinant AMPKα1β1γ1 active kinase (P54619 whole entry, further chain): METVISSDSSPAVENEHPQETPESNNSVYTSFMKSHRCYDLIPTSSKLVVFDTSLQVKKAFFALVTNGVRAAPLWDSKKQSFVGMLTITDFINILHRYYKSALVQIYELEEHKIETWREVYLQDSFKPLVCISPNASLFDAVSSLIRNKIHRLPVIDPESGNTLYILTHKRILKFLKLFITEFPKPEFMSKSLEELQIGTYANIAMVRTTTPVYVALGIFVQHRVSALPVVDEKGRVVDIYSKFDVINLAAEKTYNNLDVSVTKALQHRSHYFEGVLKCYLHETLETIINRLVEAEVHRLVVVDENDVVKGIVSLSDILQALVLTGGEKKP
Sequence of recombinant AMPKα2β1γ1 active kinase (P54646 whole entry): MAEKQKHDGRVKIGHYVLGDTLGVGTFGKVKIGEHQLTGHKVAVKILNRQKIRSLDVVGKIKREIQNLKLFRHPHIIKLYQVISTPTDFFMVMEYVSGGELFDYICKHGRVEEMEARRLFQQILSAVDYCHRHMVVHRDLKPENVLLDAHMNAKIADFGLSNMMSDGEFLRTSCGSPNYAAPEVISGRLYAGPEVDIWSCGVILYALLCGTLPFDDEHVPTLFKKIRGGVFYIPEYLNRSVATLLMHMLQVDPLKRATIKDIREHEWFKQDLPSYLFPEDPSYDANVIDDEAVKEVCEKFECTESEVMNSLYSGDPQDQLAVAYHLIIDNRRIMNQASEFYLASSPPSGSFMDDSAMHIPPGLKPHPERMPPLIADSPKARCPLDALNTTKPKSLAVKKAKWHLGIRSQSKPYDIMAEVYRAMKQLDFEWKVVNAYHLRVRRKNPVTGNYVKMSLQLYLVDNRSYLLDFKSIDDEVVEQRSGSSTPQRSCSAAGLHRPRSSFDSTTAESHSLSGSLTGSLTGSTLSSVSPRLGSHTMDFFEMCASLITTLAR
Sequence of recombinant AMPKα2β1γ1 active kinase (Q9Y478 2-270, further chain): as the sequence (Q9Y478 2-270, further chain) above
Sequence of recombinant AMPKα2β1γ1 active kinase (P54619 whole entry, further chain): as the sequence (P54619 whole entry, further chain) above

recombinant AMPKα2β1γ1 active kinase
in vitro kinase assay, phosphorylation of Ser257 [1]: Both recombinant AMPKα1 and AMPKα2 directly phosphorylated procaspase-6 at Ser^257 in vitro

recombinant AMPKα1β1γ1 active kinase
in vitro kinase assay, phosphorylation of Ser257 (FIG. 15C) [2]: Both recombinant AMPKα1 and AMPKα2 directly phosphorylated procaspase-6 at Ser^257 in vitro
in vitro kinase assay, phosphorylation of Ser257 [1]: Both recombinant AMPKα1 and AMPKα2 directly phosphorylated procaspase-6 at Ser^257 in vitro

active caspase-6
in vitro cleavage assay [3]: Active caspase-6 cleaves Bid to generate two cleaved peptide fragments
in vitro cleavage assay [4]: active caspase-6 cleaved purified Bcl2 family protein Bid (BH3 interacting-domain death agonist), but not Bax (Bcl2 associated X) in vitro
in vitro cleavage assay [5]: active caspase-6 cleaved purified Bcl2 family protein Bid (BH3 interacting-domain death agonist), but not Bax (Bcl2 associated X) in vitro

active caspase-7
in vitro cleavage assay [1]: procaspase-6 was directly cleaved by caspase-3 and -7, but not caspase-8 or -9

active caspase-9
in vitro cleavage assay [1]: procaspase-6 was directly cleaved by caspase-3 and -7, but not caspase-8 or -9

active caspase-3
in vitro cleavage assay [1]: procaspase-6 was directly cleaved by caspase-3 and -7, but not caspase-8 or -9

active caspase-8
in vitro cleavage assay [1]: procaspase-6 was directly cleaved by caspase-3 and -7, but not caspase-8 or -9
